Reference: US20030118612A1 (MAXYGEN, published 2003)

T1: human G-CSF receptor (human, UniProt Q99062 25-836)
T1 sequence (looked up): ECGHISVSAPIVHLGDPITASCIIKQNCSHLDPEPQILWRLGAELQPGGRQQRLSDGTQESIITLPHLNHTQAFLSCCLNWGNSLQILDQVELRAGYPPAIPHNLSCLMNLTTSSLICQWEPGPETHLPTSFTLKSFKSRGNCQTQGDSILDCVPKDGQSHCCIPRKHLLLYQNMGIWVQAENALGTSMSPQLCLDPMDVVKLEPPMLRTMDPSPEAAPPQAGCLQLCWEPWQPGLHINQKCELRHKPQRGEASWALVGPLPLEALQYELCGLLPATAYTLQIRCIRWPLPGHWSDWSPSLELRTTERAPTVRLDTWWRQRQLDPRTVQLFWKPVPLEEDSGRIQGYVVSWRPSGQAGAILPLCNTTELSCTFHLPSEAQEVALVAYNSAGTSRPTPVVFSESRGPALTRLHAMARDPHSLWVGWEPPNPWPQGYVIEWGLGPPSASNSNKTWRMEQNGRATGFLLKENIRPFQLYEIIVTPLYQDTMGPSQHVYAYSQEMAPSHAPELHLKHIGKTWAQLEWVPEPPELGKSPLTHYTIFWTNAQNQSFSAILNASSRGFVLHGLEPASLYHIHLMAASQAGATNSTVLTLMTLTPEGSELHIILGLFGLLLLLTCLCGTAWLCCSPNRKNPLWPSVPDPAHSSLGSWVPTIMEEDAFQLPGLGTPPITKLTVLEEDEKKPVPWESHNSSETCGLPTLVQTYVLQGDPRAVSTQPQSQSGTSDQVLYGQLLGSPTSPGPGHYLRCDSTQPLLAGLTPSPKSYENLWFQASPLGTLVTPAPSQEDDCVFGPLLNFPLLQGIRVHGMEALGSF


Each binder was assayed against T1, human G-CSF receptor (assay: cell-based or functional assay).

Row | Binder | EC50 (% of hG-CSF) non-conjugated | EC50 (% of hG-CSF) conjugated to SPA-PEG 5000
1 | G-CSF variant K16/23/40R, non-conjugated (ligand) TPLGPASSLPQSFLLRCLEQVRRIQGDGAALQEKLCATYRLCHPEELVLLGHSLGIPWAPLSSCPSQALQLAGCLSQLHSGLFLYQGLLQALEGISPELGPTLDTLQLDVADFATTIWQQMEELGMAPALQPTQGAMPAFASAFQRRAGGVLVASHLQSFLEVSYRVLRHLAQP | 50 % of hG-CSF | 
2 | G-CSF variant K16/34/40R E46K conjugated to SPA-PEG 5000 (ligand, SPA-PEG 5000 conjugated to the available PEGylation sites) TPLGPASSLPQSFLLRCLEQVRKIQGDGAALQERLCATYRLCHPEKLVLLGHSLGIPWAPLSSCPSQALQLAGCLSQLHSGLFLYQGLLQALEGISPELGPTLDTLQLDVADFATTIWQQMEELGMAPALQPTQGAMPAFASAFQRRAGGVLVASHLQSFLEVSYRVLRHLAQP |  | 1 % of hG-CSF
3 | G-CSF variant K16/34/40R S53K conjugated to SPA-PEG 5000 (ligand, SPA-PEG 5000 conjugated to the available PEGylation sites) TPLGPASSLPQSFLLRCLEQVRKIQGDGAALQERLCATYRLCHPEELVLLGHKLGIPWAPLSSCPSQALQLAGCLSQLHSGLFLYQGLLQALEGISPELGPTLDTLQLDVADFATTIWQQMEELGMAPALQPTQGAMPAFASAFQRRAGGVLVASHLQSFLEVSYRVLRHLAQP |  | 0.5 % of hG-CSF
4 | G-CSF variant K16/34/40R Q67K, non-conjugated (ligand) TPLGPASSLPQSFLLRCLEQVRKIQGDGAALQERLCATYRLCHPEELVLLGHSLGIPWAPLSSCPSKALQLAGCLSQLHSGLFLYQGLLQALEGISPELGPTLDTLQLDVADFATTIWQQMEELGMAPALQPTQGAMPAFASAFQRRAGGVLVASHLQSFLEVSYRVLRHLAQP | 10 % of hG-CSF | 
5 | G-CSF variant K16/34/40R Q70K conjugated to SPA-PEG 5000 (ligand, SPA-PEG 5000 conjugated to the available PEGylation sites) TPLGPASSLPQSFLLRCLEQVRKIQGDGAALQERLCATYRLCHPEELVLLGHSLGIPWAPLSSCPSQALKLAGCLSQLHSGLFLYQGLLQALEGISPELGPTLDTLQLDVADFATTIWQQMEELGMAPALQPTQGAMPAFASAFQRRAGGVLVASHLQSFLEVSYRVLRHLAQP |  | 20 % of hG-CSF
6 | G-CSF variant K16/23/34/40R, non-conjugated (ligand) TPLGPASSLPQSFLLRCLEQVRRIQGDGAALQERLCATYRLCHPEELVLLGHSLGIPWAPLSSCPSQALQLAGCLSQLHSGLFLYQGLLQALEGISPELGPTLDTLQLDVADFATTIWQQMEELGMAPALQPTQGAMPAFASAFQRRAGGVLVASHLQSFLEVSYRVLRHLAQP | 20 % of hG-CSF | 
7 | G-CSF variant K16/23/40R conjugated to SPA-PEG 5000 (ligand, SPA-PEG 5000 conjugated to the available PEGylation sites) TPLGPASSLPQSFLLRCLEQVRRIQGDGAALQEKLCATYRLCHPEELVLLGHSLGIPWAPLSSCPSQALQLAGCLSQLHSGLFLYQGLLQALEGISPELGPTLDTLQLDVADFATTIWQQMEELGMAPALQPTQGAMPAFASAFQRRAGGVLVASHLQSFLEVSYRVLRHLAQP |  | 5 % of hG-CSF
8 | G-CSF variant K16/34/40R Q67K conjugated to SPA-PEG 5000 (ligand, SPA-PEG 5000 conjugated to the available PEGylation sites) TPLGPASSLPQSFLLRCLEQVRKIQGDGAALQERLCATYRLCHPEELVLLGHSLGIPWAPLSSCPSKALQLAGCLSQLHSGLFLYQGLLQALEGISPELGPTLDTLQLDVADFATTIWQQMEELGMAPALQPTQGAMPAFASAFQRRAGGVLVASHLQSFLEVSYRVLRHLAQP |  | 0.2 % of hG-CSF
9 | G-CSF variant K16/34/40R Q70K, non-conjugated (ligand) TPLGPASSLPQSFLLRCLEQVRKIQGDGAALQERLCATYRLCHPEELVLLGHSLGIPWAPLSSCPSQALKLAGCLSQLHSGLFLYQGLLQALEGISPELGPTLDTLQLDVADFATTIWQQMEELGMAPALQPTQGAMPAFASAFQRRAGGVLVASHLQSFLEVSYRVLRHLAQP | 30 % of hG-CSF | 
10 | G-CSF variant K16/34/40R L3K conjugated to SPA-PEG 5000 (ligand, SPA-PEG 5000 conjugated to the available PEGylation sites) TPKGPASSLPQSFLLRCLEQVRKIQGDGAALQERLCATYRLCHPEELVLLGHSLGIPWAPLSSCPSQALQLAGCLSQLHSGLFLYQGLLQALEGISPELGPTLDTLQLDVADFATTIWQQMEELGMAPALQPTQGAMPAFASAFQRRAGGVLVASHLQSFLEVSYRVLRHLAQP |  | 25 % of hG-CSF
11 | G-CSF variant K16/34/40R E46K, non-conjugated (ligand) TPLGPASSLPQSFLLRCLEQVRKIQGDGAALQERLCATYRLCHPEKLVLLGHSLGIPWAPLSSCPSQALQLAGCLSQLHSGLFLYQGLLQALEGISPELGPTLDTLQLDVADFATTIWQQMEELGMAPALQPTQGAMPAFASAFQRRAGGVLVASHLQSFLEVSYRVLRHLAQP | 10 % of hG-CSF | 
12 | G-CSF variant K16/34/40R L3K, non-conjugated (ligand) TPKGPASSLPQSFLLRCLEQVRKIQGDGAALQERLCATYRLCHPEELVLLGHSLGIPWAPLSSCPSQALQLAGCLSQLHSGLFLYQGLLQALEGISPELGPTLDTLQLDVADFATTIWQQMEELGMAPALQPTQGAMPAFASAFQRRAGGVLVASHLQSFLEVSYRVLRHLAQP | 50 % of hG-CSF | 
13 | G-CSF variant 16R, non-conjugated (ligand) TPLGPASSLPQSFLLRCLEQVRKIQGDGAALQEKLCATYKLCHPEELVLLGHSLGIPWAPLSSCPSQALQLAGCLSQLHSGLFLYQGLLQALEGISPELGPTLDTLQLDVADFATTIWQQMEELGMAPALQPTQGAMPAFASAFQRRAGGVLVASHLQSFLEVSYRVLRHLAQP | 100 % of hG-CSF | 
14 | G-CSF variant K16/23/34/40R conjugated to SPA-PEG 5000 (ligand, SPA-PEG 5000 conjugated to the available PEGylation sites) TPLGPASSLPQSFLLRCLEQVRRIQGDGAALQERLCATYRLCHPEELVLLGHSLGIPWAPLSSCPSQALQLAGCLSQLHSGLFLYQGLLQALEGISPELGPTLDTLQLDVADFATTIWQQMEELGMAPALQPTQGAMPAFASAFQRRAGGVLVASHLQSFLEVSYRVLRHLAQP |  | 15 % of hG-CSF

Results, then the binder that gave them:

Row | EC50 (% of hG-CSF) non-conjugated | EC50 (% of hG-CSF) conjugated to SPA-PEG 5000 | Binder
15 | 10 % of hG-CSF |  | G-CSF variant K16/34/40R S62K, non-conjugated (ligand) TPLGPASSLPQSFLLRCLEQVRKIQGDGAALQERLCATYRLCHPEELVLLGHSLGIPWAPLKSCPSQALQLAGCLSQLHSGLFLYQGLLQALEGISPELGPTLDTLQLDVADFATTIWQQMEELGMAPALQPTQGAMPAFASAFQRRAGGVLVASHLQSFLEVSYRVLRHLAQP
16 | 35 % of hG-CSF |  | G-CSF variant K16/34/40R, non-conjugated (ligand) TPLGPASSLPQSFLLRCLEQVRKIQGDGAALQERLCATYRLCHPEELVLLGHSLGIPWAPLSSCPSQALQLAGCLSQLHSGLFLYQGLLQALEGISPELGPTLDTLQLDVADFATTIWQQMEELGMAPALQPTQGAMPAFASAFQRRAGGVLVASHLQSFLEVSYRVLRHLAQP
17 |  | 0.1 % of hG-CSF | G-CSF without N-terminal Histidine tag conjugated to SPA-PEG 5000 (ligand, SPA-PEG 5000 conjugated to the available PEGylation sites) TPLGPASSLPQSFLLKCLEQVRKIQGDGAALQEKLCATYKLCHPEELVLLGHSLGIPWAPLSSCPSQALQLAGCLSQLHSGLFLYQGLLQALEGISPELGPTLDTLQLDVADFATTIWQQMEELGMAPALQPTQGAMPAFASAFQRRAGGVLVASHLQSFLEVSYRVLRHLAQP
18 |  | 0.5 % of hG-CSF | G-CSF variant K16/34/40R S62K conjugated to SPA-PEG 5000 (ligand, SPA-PEG 5000 conjugated to the available PEGylation sites) TPLGPASSLPQSFLLRCLEQVRKIQGDGAALQERLCATYRLCHPEELVLLGHSLGIPWAPLKSCPSQALQLAGCLSQLHSGLFLYQGLLQALEGISPELGPTLDTLQLDVADFATTIWQQMEELGMAPALQPTQGAMPAFASAFQRRAGGVLVASHLQSFLEVSYRVLRHLAQP
19 |  | 30 % of hG-CSF | G-CSF variant K16/34/40R conjugated to SPA-PEG 5000 (ligand, SPA-PEG 5000 conjugated to the available PEGylation sites) TPLGPASSLPQSFLLRCLEQVRKIQGDGAALQERLCATYRLCHPEELVLLGHSLGIPWAPLSSCPSQALQLAGCLSQLHSGLFLYQGLLQALEGISPELGPTLDTLQLDVADFATTIWQQMEELGMAPALQPTQGAMPAFASAFQRRAGGVLVASHLQSFLEVSYRVLRHLAQP
20 |  | 2 % of hG-CSF | G-CSF variant K16/34/40R S66K conjugated to SPA-PEG 5000 (ligand, SPA-PEG 5000 conjugated to the available PEGylation sites) TPLGPASSLPQSFLLRCLEQVRKIQGDGAALQERLCATYRLCHPEELVLLGHSLGIPWAPLSSCPKQALQLAGCLSQLHSGLFLYQGLLQALEGISPELGPTLDTLQLDVADFATTIWQQMEELGMAPALQPTQGAMPAFASAFQRRAGGVLVASHLQSFLEVSYRVLRHLAQP
21 | 20 % of hG-CSF |  | G-CSF variant K16/34/40R S66K, non-conjugated (ligand) TPLGPASSLPQSFLLRCLEQVRKIQGDGAALQERLCATYRLCHPEELVLLGHSLGIPWAPLSSCPKQALQLAGCLSQLHSGLFLYQGLLQALEGISPELGPTLDTLQLDVADFATTIWQQMEELGMAPALQPTQGAMPAFASAFQRRAGGVLVASHLQSFLEVSYRVLRHLAQP
22 | 5 % of hG-CSF |  | G-CSF variant K16/34/40R S53K, non-conjugated (ligand) TPLGPASSLPQSFLLRCLEQVRKIQGDGAALQERLCATYRLCHPEELVLLGHKLGIPWAPLSSCPSQALQLAGCLSQLHSGLFLYQGLLQALEGISPELGPTLDTLQLDVADFATTIWQQMEELGMAPALQPTQGAMPAFASAFQRRAGGVLVASHLQSFLEVSYRVLRHLAQP
23 | 50 % of hG-CSF |  | G-CSF variant K16/34/40R S76, non-conjugated (ligand) TPLGPASSLPQSFLLRCLEQVRKIQGDGAALQERLCATYRLCHPEELVLLGHSLGIPWAPLSSCPSQALQLAGCLKQLHSGLFLYQGLLQALEGISPELGPTLDTLQLDVADFATTIWQQMEELGMAPALQPTQGAMPAFASAFQRRAGGVLVASHLQSFLEVSYRVLRHLAQP
